From patent publication US20220162334A1 (SHANGHAI HENLIUS BIOTECH, published 2022)
Changes are numbered by the printed parent chain. In names and notes the source's numbering stands.

B1: N1#9-PH (antibody, human IgG2, lambda, V domains shown)
VH: EVQLVESGGGLVQPGRSLRLSCAASGFTFDDYAMHWVRLAPGKGLEWVSGISWNSGSIGYADSVRGRFTISRDNAKNSLYLQMNSLRAEDTALYYCAKDMGWSLLKTNYYGMDVWGQGTTVTVSS
VL: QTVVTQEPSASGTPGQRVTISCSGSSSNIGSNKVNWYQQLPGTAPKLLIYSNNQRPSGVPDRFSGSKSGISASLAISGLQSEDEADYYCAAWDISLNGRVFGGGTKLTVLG
notes: Full-length human IgG2 antibody; also called antibody variant N1#9-PH; N1 top variant
B2: N4#6-3-P (antibody, human IgG2, lambda, V domains shown)
VH: QVQLVQSGAEVKKSGSSVKVSCKASGGTFSSYAISWVRQAPGQGLEWMGGIIPIFGTANYAQKFQGRVTITADESTSIAYMELSSLRSEDTAVYYCASDGAVAAYDAFLIWGQGTMVTVSS
VL: QAVLTQPSSVSGAPGQRVTISCTGTSSNIGLGYDIHWYQQLPGTAPKLLMYRFDRRPSGVPDRFSGSKSGTSASLTITGLQVEDEADYYCQSYDSGQRGWVFGGGTKLTVLG
notes: Full-length human IgG2 antibody; also called antibody variant N4#6-3-P; N4 top variant
B3: N4#6-4-P (antibody, human IgG2, lambda, V domains shown)
VH: B2 VH with G50M
VL: B2 VL with L31A, Y33F, D54S
notes: Full-length human IgG2 antibody; also called antibody variant N4#6-4-P; N4 top variant
B4: N4-tmtIgG1 (antibody)
heavy: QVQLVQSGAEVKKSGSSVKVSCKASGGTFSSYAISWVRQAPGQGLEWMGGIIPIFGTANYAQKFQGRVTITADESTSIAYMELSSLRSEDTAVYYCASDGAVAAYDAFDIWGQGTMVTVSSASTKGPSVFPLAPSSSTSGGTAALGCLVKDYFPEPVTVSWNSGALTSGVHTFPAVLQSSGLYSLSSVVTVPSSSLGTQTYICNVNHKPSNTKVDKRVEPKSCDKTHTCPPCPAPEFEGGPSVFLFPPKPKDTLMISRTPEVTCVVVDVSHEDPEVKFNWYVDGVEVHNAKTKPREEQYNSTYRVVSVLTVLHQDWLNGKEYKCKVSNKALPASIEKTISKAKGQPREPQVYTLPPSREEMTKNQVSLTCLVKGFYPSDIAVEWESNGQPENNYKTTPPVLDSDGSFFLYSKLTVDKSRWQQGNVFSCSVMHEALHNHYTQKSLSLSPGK
light: QAVLTQPSSVSGAPGQRVTISCTGTSSNIGAGYDIHWYQQLPGTAPKLLMYRFTRRPSGVPDRFSGSKSGTSASLTITGLQVEDEADYYCQSYDSGLRGWVFGGGTKLAVLGQPKAAPSVTLFPPSSEELQANKATLVCLISDFYPGAVTVAWKADSSPVKAGVETTTPSKQSNSKYAASSYLSLTPEQWKSHRSYSCQVTHEGSTVEKTVALTECS
notes: Heavy chain assembled from the VH entry and the constant region entry named tmtIgG1; also called lead N4; N4 clone, tmtIgG1 isotype
B5: N4 with wtIgG2 isotype (antibody)
heavy: QVQLVQSGAEVKKSGSSVKVSCKASGGTFSSYAISWVRQAPGQGLEWMGGIIPIFGTANYAQKFQGRVTITADESTSIAYMELSSLRSEDTAVYYCASDGAVAAYDAFDIWGQGTMVTVSSASTKGPSVFPLAPCSRSTSESTAALGCLVKDYFPEPVTVSWNSGALTSGVHTFPAVLQSSGLYSLSSVVTVPSSNFGTQTYTCNVDHKPSNTKVDKTVERKCCVECPPCPAPPVAGPSVFLFPPKPKDTLMISRTPEVTCVVVDVSHEDPEVQFNWYVDGVEVHNAKTKPREEQFNSTFRVVSVLTVVHQDWLNGKEYKCKVSNKGLPAPIEKTISKTKGQPREPQVYTLPPSREEMTKNQVSLTCLVKGFYPSDIAVEWESNGQPENNYKTTPPMLDSDGSFFLYSKLTVDKSRWQQGNVFSCSVMHEALHNHYTQKSLSLSPGK
light: B4 light
notes: also called N4-wtIgG2; N4 clone, wtIgG2 isotype
B6: N4 with mtIgG2 isotype (antibody)
heavy: B5 heavy with C223S
light: B4 light
notes: also called N4-mtIgG2; N4 clone, mtIgG2 isotype
B7: N2-tmtIgG1 (antibody)
heavy: QVQLQQWGAGLLKPSETLSLTCAVYGGSFSGYYWSWIRQPPGKGLEWIGEINHSGSTNYNPSLKSRVTISVDTSKNQFSLKLSSVTAADTAVYYCARGRYDFWSGYYAYFDYWGQGTLVTVSSASTKGPSVFPLAPSSSTSGGTAALGCLVKDYFPEPVTVSWNSGALTSGVHTFPAVLQSSGLYSLSSVVTVPSSSLGTQTYICNVNHKPSNTKVDKRVEPKSCDKTHTCPPCPAPEFEGGPSVFLFPPKPKDTLMISRTPEVTCVVVDVSHEDPEVKFNWYVDGVEVHNAKTKPREEQYNSTYRVVSVLTVLHQDWLNGKEYKCKVSNKALPASIEKTISKAKGQPREPQVYTLPPSREEMTKNQVSLTCLVKGFYPSDIAVEWESNGQPENNYKTTPPVLDSDGSFFLYSKLTVDKSRWQQGNVFSCSVMHEALHNHYTQKSLSLSPGK
light: LNFMLTQPHSVSESPGKTVTISCTCSGGRIANNYVQWYQQRPGTSPTTVIYEDNLRPSGVPDRFSGSIDRASNSASLTISDLRTEDEAHYYCQSYDSNDGVAFGGGTKLTVLGQPKAAPSVTLFPPSSEELQANKATLVCLISDFYPGAVTVAWKADSSPVKAGVETTTPSKQSNNKYAASSYLSLTPEQWKSHRSYSCQVTHGGSTVEKTVALTECS
notes: Heavy chain assembled from the VH entry and the constant region entry named tmtIgG1; also called lead N2; N2 clone, tmtIgG1 isotype
B8: N2-wtIgG2 (antibody)
heavy: QVQLQQWGAGLLKPSETLSLTCAVYGGSFSGYYWSWIRQPPGKGLEWIGEINHSGSTNYNPSLKSRVTISVDTSKNQFSLKLSSVTAADTAVYYCARGRYDFWSGYYAYFDYWGQGTLVTVSSASTKGPSVFPLAPCSRSTSESTAALGCLVKDYFPEPVTVSWNSGALTSGVHTFPAVLQSSGLYSLSSVVTVPSSNFGTQTYTCNVDHKPSNTKVDKTVERKCCVECPPCPAPPVAGPSVFLFPPKPKDTLMISRTPEVTCVVVDVSHEDPEVQFNWYVDGVEVHNAKTKPREEQFNSTFRVVSVLTVVHQDWLNGKEYKCKVSNKGLPAPIEKTISKTKGQPREPQVYTLPPSREEMTKNQVSLTCLVKGFYPSDIAVEWESNGQPENNYKTTPPMLDSDGSFFLYSKLTVDKSRWQQGNVFSCSVMHEALHNHYTQKSLSLSPGK
light: B7 light
notes: also called N2 clone, wtIgG2 isotype
B9: N2-mtIgG2 (antibody)
heavy: B8 heavy with C225S
light: B7 light
notes: also called N2 clone, mtIgG2 isotype; C219S mutant IgG2

These binders were tested against T1, mouse CD73 on mouse mammary carcinoma 4T1 cells (mouse, UniProt Q61503 29-551) (assay: flow cytometry on 4T1 cells, FITC anti-human IgG (FIG. 24A)).
T1 construct: whole, on cells
T1 sequence (looked up): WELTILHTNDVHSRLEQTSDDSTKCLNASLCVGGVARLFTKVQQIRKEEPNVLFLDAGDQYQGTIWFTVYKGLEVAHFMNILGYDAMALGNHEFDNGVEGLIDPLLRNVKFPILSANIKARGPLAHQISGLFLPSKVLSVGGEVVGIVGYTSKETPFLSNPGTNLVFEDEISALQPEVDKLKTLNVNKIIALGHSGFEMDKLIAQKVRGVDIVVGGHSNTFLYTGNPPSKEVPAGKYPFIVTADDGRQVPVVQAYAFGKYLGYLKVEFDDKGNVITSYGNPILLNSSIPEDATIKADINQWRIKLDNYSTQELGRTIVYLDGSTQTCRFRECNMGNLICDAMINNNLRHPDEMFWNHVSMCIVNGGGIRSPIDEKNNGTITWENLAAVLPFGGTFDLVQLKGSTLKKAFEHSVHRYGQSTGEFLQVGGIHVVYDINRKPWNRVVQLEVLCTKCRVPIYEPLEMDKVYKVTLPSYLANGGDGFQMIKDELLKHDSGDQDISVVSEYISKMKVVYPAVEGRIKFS
Description: Binding of anti-CD73 antibodies was assessed by incubating the 4T1 or LLC-MK2 cells (1E5 cells/test) with the serially diluted antibodies in FACS buffer (PBS with 2% FBS) at 4° C. for 30 minutes. The cells were washed with FACS buffer and the binding was detected with FITC-labeled goat anti-human IgG (H+L) antibodies at 4° C. for another 30 minutes. The binding of antibodies to cell surface was measured by the mean fluorescent intensity (MFI) of staining. Flow cytometric analyses were performed using the Cytomics FC500 or CytoFLEX flow cytometry (Beckman Coulter Inc.).
FIGS. 24A and 24B illustrate cross-binding of N1 and N4 top variants to mouse and monkey CD73-expressing cells. Anti-CD73 antibodies were tested for the binding to CD73-expressing mouse mammary carcinoma 4T1 cells (FIG. 24A) and monkey kidney epithelial LLC-MK2 cells (FIG. 24B) by flow cytometry. HLX01 was used as the negative control. […] N1 and N4 top variants cannot cross-bind to mouse CD73.

Binder	binding result
B1	no binding
B2	no binding
B3	no binding

What follows are binders tested against T2, human CD73 on CD73-expressing human tumor cells (MDA-MB-231, NCI-H292) (human, UniProt P21589 27-549) (assay: flow cytometry on MDA-MB-231 cells (FIG. 16B)).
T2 construct: whole, on cells; The cell line of each result is named under assay or readout; also called cell surface CD73; surface CD73
T2 sequence (looked up): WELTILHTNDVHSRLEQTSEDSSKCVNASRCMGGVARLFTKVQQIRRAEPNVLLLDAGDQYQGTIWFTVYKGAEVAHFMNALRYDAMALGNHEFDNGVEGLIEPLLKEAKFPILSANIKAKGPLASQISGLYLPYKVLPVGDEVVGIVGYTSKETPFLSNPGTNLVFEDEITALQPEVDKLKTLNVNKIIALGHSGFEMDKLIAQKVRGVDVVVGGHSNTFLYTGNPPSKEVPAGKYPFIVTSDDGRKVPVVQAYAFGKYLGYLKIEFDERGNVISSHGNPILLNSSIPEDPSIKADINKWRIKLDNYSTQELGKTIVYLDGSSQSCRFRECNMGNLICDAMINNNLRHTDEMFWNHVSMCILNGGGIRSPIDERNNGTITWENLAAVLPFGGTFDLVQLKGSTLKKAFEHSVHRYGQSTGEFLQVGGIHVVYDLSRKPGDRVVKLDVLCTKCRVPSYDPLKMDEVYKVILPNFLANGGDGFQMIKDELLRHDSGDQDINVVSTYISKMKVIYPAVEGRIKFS
Description: Whole cell binding ability of anti-CD73 antibodies were tested by incubating the MDA-MB-231 or NCI-H292 cells with the serial-diluted antibodies in FACS buffer (PBS with 2% FBS) at 4° C. for 30 minutes. Cells were washed with FACS buffer and the binding was detected with FITC-labeled goat anti-human IgG (H+L) antibodies (or PE-labeled goat anti-human IgG Fcγ) at 4° C. for another 30 minutes. The binding of antibodies to cell surface was measured by the mean fluorescent intensity (MFI) of staining. Flow cytometric analyses were performed using the Cytomics FC500 or CytoFLEX flow cytometry (Beckman Coulter Inc.). FIGS. 2B and 2C show selected anti-CD73 antibodies binding to CD73-expressing human tumor cells MDA-MB-231 (human breast adenocarcinoma) cells (FIG. 2B), and NCI-H292 (human mucoepidermoid pulmonary carcinoma) cells (FIG. 2C).
FIGS. 16A-16C show CD73 binding ability of N1 and N4 top variants. Anti-CD73 antibodies were tested the binding to recombinant human CD73 proteins by ELISA (FIG. 16A) and CD73-expressing human tumor cells, MDA-MB-231 (FIG. 16B) and NCI-H292 (FIG. 16C), by flow cytometry. Anti-CD73 ref-1 and anti-CD73 ref-2 antibodies were used as the positive controls, while HLX01 (anti-CD20) was used as the negative control. […] The binding of N1#9-PH to CD73-expressing NCI-H292 cells is slightly better than that of N4#6-3-P and N4#6-4-P.

Binder	binding result
B1	binds
B2	binds
B3	binds

What follows are binders tested against T2, human CD73 on CD73-expressing human … (assay: flow cytometry on MDA-MB-231 cells, biotin-labeled antibody, streptavidin-FITC (FIG. 5C)).
Description: (§1) The binding of anti-CD73 antibodies to cell surface CD73 were tested by incubating the MDA-MB-231 cells with the serially diluted biotin-labeled anti-CD73 antibodies in FACS buffer (PBS with 2% FBS) at 4° C. for 30 minutes. The cells were washed with FACS buffer and the binding was detected with streptavidin-FITC at 4° C. for 30 minutes. Flow cytometric analyses were performed using the Cytomics FC500 (Beckman Coulter Inc.).
(§2) The variable sequences of N1, N2 and N4 were cloned into human wild-type or C219S mutant IgG2 Fc backbone. Different IgG isotypes of N1 (FIG. 5A), N2 (FIG. 5B), N4 (FIG. 5C) were tested the binding to CD73-expressing human MDA-MB-231 cells by flow cytometry. Anti-CD73 ref-1 antibody and HLX01 (anti-CD20) were used as the positive and negative control respectively.

Binder	binding result
B4	binds
B5	binds
B6	binds

The binders below were run against T2, human CD73 on CD73-expressing human … (assay: flow cytometry on MDA-MB-231 cells, biotin-labeled antibody, streptavidin-FITC (FIG. 5B)).
Description: as §1, §2

Binder	binding result
B7	binds
B8	binds
B9	binds
